Source: paper PMC11284795

Legend:
[1] = target: human beta-klotho (KLB) on HEK293 cells (human) (UniProt Q86Z14)
[2] = target: FGFR4/KLB: ectodomain of human FGFR4 fused to Fc, with human beta-klotho (human) (UniProt P22455)
[3] = target: human beta-klotho (KLB) on HEK293 cells (human) (UniProt Q86Z14); remark: listed apart in the source
[4] = target: human serum albumin (HSA) (human) (UniProt P02768)

Sequence of FGF21 analog 22: Ala[Gln121, Leu168, Cys180]FGF21 with a C16 fatty diacid side chain on 180C (Q9NSA1 other isoform, or with tags, fused parts or gaps): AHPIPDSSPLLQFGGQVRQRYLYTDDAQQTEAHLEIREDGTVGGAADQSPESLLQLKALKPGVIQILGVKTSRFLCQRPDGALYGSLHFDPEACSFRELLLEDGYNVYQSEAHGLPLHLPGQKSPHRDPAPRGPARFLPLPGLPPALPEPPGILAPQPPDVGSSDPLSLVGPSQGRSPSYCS
Sequence of Met-FGF19 (25) (O95750 other isoform, or with tags, fused parts or gaps): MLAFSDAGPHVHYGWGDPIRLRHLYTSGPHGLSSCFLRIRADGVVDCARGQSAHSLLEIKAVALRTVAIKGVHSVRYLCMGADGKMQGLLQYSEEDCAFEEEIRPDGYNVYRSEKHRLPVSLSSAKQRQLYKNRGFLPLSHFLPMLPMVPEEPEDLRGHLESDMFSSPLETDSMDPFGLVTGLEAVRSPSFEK
Sequence of FGF21 analog 12 (-1A, 121Q, 168L, 176C; cysteamine on 176C) (Q9NSA1 other isoform, or with tags, fused parts or gaps): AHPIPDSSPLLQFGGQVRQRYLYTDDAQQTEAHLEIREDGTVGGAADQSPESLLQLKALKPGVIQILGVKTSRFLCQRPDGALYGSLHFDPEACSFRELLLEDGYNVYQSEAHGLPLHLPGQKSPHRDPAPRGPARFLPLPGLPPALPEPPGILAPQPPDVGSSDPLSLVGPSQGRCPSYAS
Sequence of FGF21 analog 10 (-1A, 121Q, 168L, 174C; C18 fatty diacid on 174C) (Q9NSA1 other isoform, or with tags, fused parts or gaps): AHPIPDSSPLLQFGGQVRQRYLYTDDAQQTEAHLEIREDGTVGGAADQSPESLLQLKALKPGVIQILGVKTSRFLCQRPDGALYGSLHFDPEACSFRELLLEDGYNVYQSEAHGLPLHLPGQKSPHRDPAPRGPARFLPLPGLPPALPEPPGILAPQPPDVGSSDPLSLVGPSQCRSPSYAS
Sequence of FGF21 analog 9 (-1A, 121Q, 168L, 172C; cysteamine on 172C) (Q9NSA1 other isoform, or with tags, fused parts or gaps): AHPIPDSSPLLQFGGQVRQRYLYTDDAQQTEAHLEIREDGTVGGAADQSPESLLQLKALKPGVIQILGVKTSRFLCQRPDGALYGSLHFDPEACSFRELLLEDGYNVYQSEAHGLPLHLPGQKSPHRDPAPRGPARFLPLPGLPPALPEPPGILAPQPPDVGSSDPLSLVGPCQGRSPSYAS
Sequence of FGF21 analog 8 (-1A, 121Q, 168L, 171C; cysteamine on 171C) (Q9NSA1 other isoform, or with tags, fused parts or gaps): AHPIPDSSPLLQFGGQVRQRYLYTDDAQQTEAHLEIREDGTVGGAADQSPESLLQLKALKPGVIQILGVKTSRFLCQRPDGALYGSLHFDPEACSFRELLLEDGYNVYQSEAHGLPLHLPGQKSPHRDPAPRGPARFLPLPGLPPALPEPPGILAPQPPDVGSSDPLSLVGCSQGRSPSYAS
Sequence of FGF21 analog 13 (-1A, 121Q, 168L, 178C; cysteamine on 178C) (Q9NSA1 other isoform, or with tags, fused parts or gaps): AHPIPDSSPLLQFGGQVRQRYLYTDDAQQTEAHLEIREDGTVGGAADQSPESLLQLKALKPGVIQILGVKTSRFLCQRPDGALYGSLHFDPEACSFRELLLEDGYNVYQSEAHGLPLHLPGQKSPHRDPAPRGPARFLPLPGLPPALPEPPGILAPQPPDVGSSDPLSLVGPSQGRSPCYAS
Sequence of FGF21 (0) (Q9NSA1 29-209): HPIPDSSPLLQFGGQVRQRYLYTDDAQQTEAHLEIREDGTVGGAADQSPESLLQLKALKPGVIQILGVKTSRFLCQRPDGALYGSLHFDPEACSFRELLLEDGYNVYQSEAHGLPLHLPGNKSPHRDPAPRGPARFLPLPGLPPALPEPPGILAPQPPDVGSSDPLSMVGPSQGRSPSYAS
Sequence of FGF21 analog 5 (-1A, 71C, 121Q, 168L; C18 fatty diacid on 71C) (Q9NSA1 other isoform, or with tags, fused parts or gaps): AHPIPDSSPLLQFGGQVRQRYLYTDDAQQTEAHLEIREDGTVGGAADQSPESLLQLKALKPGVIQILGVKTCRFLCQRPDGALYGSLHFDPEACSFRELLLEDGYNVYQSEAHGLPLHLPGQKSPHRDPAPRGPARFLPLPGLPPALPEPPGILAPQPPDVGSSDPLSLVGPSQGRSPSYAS
Sequence of FGF21 analog 19 (-1A, 121Q, 168L, 181C; cysteamine on 181C) (Q9NSA1 other isoform, or with tags, fused parts or gaps): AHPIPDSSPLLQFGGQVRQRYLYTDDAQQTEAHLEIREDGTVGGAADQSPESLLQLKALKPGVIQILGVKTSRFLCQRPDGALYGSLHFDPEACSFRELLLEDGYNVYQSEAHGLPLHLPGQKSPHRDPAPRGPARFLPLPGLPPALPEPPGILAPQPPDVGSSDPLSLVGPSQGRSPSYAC
Sequence of FGF21 analog 3 (-1A, 121Q) (Q9NSA1 28-209 N149Q): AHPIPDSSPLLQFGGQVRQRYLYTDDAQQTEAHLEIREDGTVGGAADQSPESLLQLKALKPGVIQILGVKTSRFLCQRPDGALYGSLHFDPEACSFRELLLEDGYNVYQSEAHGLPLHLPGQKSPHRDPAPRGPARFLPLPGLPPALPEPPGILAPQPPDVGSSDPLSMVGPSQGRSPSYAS
Sequence of FGF21 analog 7 (-1A, 121Q, 168L, 170C; cysteamine on 170C) (Q9NSA1 other isoform, or with tags, fused parts or gaps): as the sequence (Q9NSA1 28-209 N149Q) above, with M169L, G171C counted along it
Sequence of FGF21 analog 14 (-1A, 121Q, 168L, 179C; cysteamine on 179C) (Q9NSA1 other isoform, or with tags, fused parts or gaps): as the sequence (Q9NSA1 28-209 N149Q) above, with M169L, Y180C counted along it
Sequence of FGF21 analog 6 (-1A, 121Q, 167C, 168L; cysteamine on 167C) (Q9NSA1 other isoform, or with tags, fused parts or gaps): as the sequence (Q9NSA1 28-209 N149Q) above, with S168C, M169L counted along it
Sequence of FGF21 analog 2 (-1A) (Q9NSA1 28-209): as the sequence (Q9NSA1 28-209 N149Q) above, with Q122N counted along it

Substance | potency (EC50) of ERK phosphorylation in HEK293 cells transfected with human KLB, without HSA [1] | further results
FGF21 analog 8 (-1A, 121Q, 168L, 171C; cysteamine on 171C) (from UniProt Q9NSA1 29-209) (ligand) | 2.2 nM | 
FGF21 (0) (from UniProt Q9NSA1 29-209) (ligand) | 1 nM | 
FGF21 analog 5 (-1A, 71C, 121Q, 168L; C18 fatty diacid on 71C) (from UniProt Q9NSA1 29-209) (ligand) | 4.8 nM | 
FGF21 analog 3 (-1A, 121Q) (from UniProt Q9NSA1 29-209) (ligand) | 1 nM | 
Met-FGF19 (25) (from UniProt O95750 25-216) (ligand) |  | potency EC50 of ERK phosphorylation in Ba/F3 cells overexpressing human KLB and FGFR4 (chimera with the kinase domain of FGFR1c), 0% HSA [2]: 2.3 nM
FGF21 analog 9 (-1A, 121Q, 168L, 172C; cysteamine on 172C) (from UniProt Q9NSA1 29-209) (ligand) | 3.3 nM | 
FGF21 analog 11 (-1A, 121Q, 168L, 174C; cysteamine on 174C) (from UniProt Q9NSA1 29-209) (ligand) | 6.1 nM | 
FGF21 analog 6 (-1A, 121Q, 167C, 168L; cysteamine on 167C) (from UniProt Q9NSA1 29-209) (ligand) | 1.4 nM | 
cysteamine protected Ala[Gln121, Leu168, Cys180]FGF21 (16) (from UniProt Q9NSA1 29-209) (ligand) |  | potency (EC50) of ERK phosphorylation in HEK293 cells transfected with human KLB, without HSA (with 0.1 and 1.0% HSA: 1.8 and 2.1 nM, Table 3) [1]: 2.5 nM
FGF21 analog 22: Ala[Gln121, Leu168, Cys180]FGF21 with a C16 fatty diacid side chain on 180C (from UniProt Q9NSA1 29-209) (ligand) |  | potency (EC50) of ERK phosphorylation in HEK293 cells transfected with human KLB, 0% HSA [3]: 3.5 nM; potency (EC50) of ERK phosphorylation in HEK293/human KLB cells with 0.1, 1.0 and 1.5% HSA: 4.2, 52 and 92 nM (3.5 nM without HSA) [4]: 92 nM
FGF21 analog 20 (-1A, 121Q, 168L, 180C; C12 fatty diacid on 180C) (from UniProt Q9NSA1 29-209) (ligand) |  | potency (EC50) of ERK phosphorylation in HEK293 cells transfected with human KLB, 0% HSA [3]: 5.8 nM; potency (EC50) of ERK phosphorylation in HEK293/human KLB cells with 0.1 and 1.0% HSA: 3.7 and 5.2 nM (5.8 nM without HSA); no HSA-dependent reduction of potency [4]: 5.2 nM
FGF21 analog 13 (-1A, 121Q, 168L, 178C; cysteamine on 178C) (from UniProt Q9NSA1 29-209) (ligand) | 90 nM | 
FGF21 analog 12 (-1A, 121Q, 168L, 176C; cysteamine on 176C) (from UniProt Q9NSA1 29-209) (ligand) | 160 nM | 
FGF21 analog 21 (-1A, 121Q, 168L, 180C; C14 fatty diacid on 180C) (from UniProt Q9NSA1 29-209) (ligand) |  | potency (EC50) of ERK phosphorylation in HEK293 cells transfected with human KLB, 0% HSA [3]: 5.2 nM; potency (EC50) of ERK phosphorylation in HEK293/human KLB cells with 0.1, 1.0 and 1.5% HSA: 4.0, 5.8 and 8.6 nM (5.2 nM without HSA); no HSA-dependent reduction of potency [4]: 8.6 nM
FGF21 analog 23 (-1A, 121Q, 168L, 180C; C20 fatty diacid on 180C) (from UniProt Q9NSA1 29-209) (ligand) |  | potency (EC50) of ERK phosphorylation in HEK293 cells transfected with human KLB, 0% HSA [3]: 3.8 nM; potency (EC50) of ERK phosphorylation in HEK293/human KLB cells with 0.1 and 1.5% HSA: 47 and 173 nM (3.8 nM without HSA) [4]: 173 nM

Continued, in another order:

potency (EC50) of ERK phosphorylation in HEK293 cells transfected with human KLB, without HSA [1] | Substance | further results
67 nM | FGF21 analog 14 (-1A, 121Q, 168L, 179C; cysteamine on 179C) (from UniProt Q9NSA1 29-209) (ligand) | 
1.5 nM | FGF21 analog 10 (-1A, 121Q, 168L, 174C; C18 fatty diacid on 174C) (from UniProt Q9NSA1 29-209) (ligand) | 
24 nM | FGF21 analog 19 (-1A, 121Q, 168L, 181C; cysteamine on 181C) (from UniProt Q9NSA1 29-209) (ligand) | 
1.3 nM | FGF21 analog 2 (-1A) (from UniProt Q9NSA1 29-209) (ligand) | 
3.4 nM | FGF21 analog 7 (-1A, 121Q, 168L, 170C; cysteamine on 170C) (from UniProt Q9NSA1 29-209) (ligand) | 
